Drawing on paper PMC11222974, “The effect of ADAMTS13 on graft‐versus‐host disease” (Journal of Cellular and Molecular Medicine, 2024), this text covers Kd, ka1 and kd1 for two molecules.

One assay concerns the target integrin αL chain (UniProt P20701). The experiment in a line: SPR; Biacore 3000, 25°C; integrin αL amine-coupled to CM5 (~500 RU), soluble VWF or VWF-A2 flowed over at 30 μL/min in TBSTG (25 mM Tris pH 7.5, 150 mM NaCl, 0.05% Tween, 2% glycerol); apparent.
Assay [1] has as its target T1, factor VIII‐free Von Willebrand factor (human, UniProt P04275 764-2813).
T1 construct: Von Willebrand factor, human, factor VIII-free; multimeric; molar concentration counted with a monomeric MW of 260 kDa; Multimeric protein; On the SPR chip it was treated with 10 mM TCEP after coupling; also called VWF; recombinant human factor VIII‐free VWF; source: bought: Haematologic Technologies / Prolytix, catalogue HCVWF‐0191
The experiment in a line: SPR; Biacore 3000, 25°C; factor VIII-free VWF amine-coupled to CM5 (~3000 RU after TCEP), αL flowed over at 30 μL/min in TBSTG (25 mM Tris pH 7.5, 150 mM NaCl, 0.05% Tween, 2% glycerol); two-state binding model; apparent. Conditions: both partners purified.

On to “recombinant VWF‐A2 protein (domain or fragment)”, for which, in the assay with integrin αL chain, the Kd was determined as 94 nM, the ka1 came to 140000 M⁻¹ s⁻¹ and the kd1 turned out to be 0.013 s⁻¹.

B1: integrin αL chain (receptor, UniProt P20701 26-1090, looked up)
chain: YNLDVRGARSFSPPRAGRHFGYRVLQVGNGVIVGAPGEGNSTGSLYQCQSGTGHCLPVTLRGSNYTSKYLGMTLATDPTDGSILACDPGLSRTCDQNTYLSGLCYLFRQNLQGPMLQGRPGFQECIKGNVDLVFLFDGSMSLQPDEFQKILDFMKDVMKKLSNTSYQFAAVQFSTSYKTEFDFSDYVKRKDPDALLKHVKHMLLLTNTFGAINYVATEVFREELGARPDATKVLIIITDGEATDSGNIDAAKDIIRYIIGIGKHFQTKESQETLHKFASKPASEFVKILDTFEKLKDLFTELQKKIYVIEGTSKQDLTSFNMELSSSGISADLSRGHAVVGAVGAKDWAGGFLDLKADLQDDTFIGNEPLTPEVRAGYLGYTVTWLPSRQKTSLLASGAPRYQHMGRVLLFQEPQGGGHWSQVQTIHGTQIGSYFGGELCGVDVDQDGETELLLIGAPLFYGEQRGGRVFIYQRRQLGFEEVSELQGDPGYPLGRFGEAITALTDINGDGLVDVAVGAPLEEQGAVYIFNGRHGGLSPQPSQRIEGTQVLSGIQWFGRSIHGVKDLEGDGLADVAVGAESQMIVLSSRPVVDMVTLMSFSPAEIPVHEVECSYSTSNKMKEGVNITICFQIKSLIPQFQGRLVANLTYTLQLDGHRTRRRGLFPGGRHELRRNIAVTTSMSCTDFSFHFPVCVQDLISPINVSLNFSLWEEEGTPRDQRAQGKDIPPILRPSLHSETWEIPFEKNCGEDKKCEANLRVSFSPARSRALRLTAFASLSVELSLSNLEEDAYWVQLDLHFPPGLSFRKVEMLKPHSQIPVSCEELPEESRLLSRALSCNVSSPIFKAGHSVALQMMFNTLVNSSWGDSVELHANVTCNNEDSDLLEDNSATTIIPILYPINILIQDQEDSTLYVSFTPKGPKIHQVKHMYQVRIQPSIHDHNIPTLEAVVGVPQPPSEGPITHQWSVQMEPPVPCHYEDLERLPDAAEPCLPGALFRCPVVFRQEILVQVIGTLELVGEIEASSMFSLCSSLSISFNSSKHFHLYGSNASLAQVVMKVDVVYEKQML
notes: integrin αL chain (CD11a), recombinant, Origene TP321297; αL chain alone, without β2, in the SPR experiments; In the functional rows this molecule stands for αLβ2 on Jurkat cells; also called aL; CD11a; source: bought: Origene, catalogue TP321297
Turning to B1, the Kd in assay [1] worked out at 120 nM.
